The target in test [1] is T1, Navβ3 (human, UniProt Q9NY72 23-215, limits assumed).
T1 construct: also called beta3 subunit
Put plainly: binding ELISA. (In general: In an ELISA, binding on a coated surface is turned into a signal by an enzyme label.)

The target in test [2] is T2, huNav1.7α (human, UniProt Q15858 1-1988).
T2 construct: HEK cells expressing the α subunit alone; also called HEKa; HEK huNav1.7α
Put plainly: further characterization (binding ELISA and FACS).

For test [3], the target named is T3, huNav157chim14 (human).
T3 construct: HEK Flp-In cells; also called huNav157 chimera 14
Nature of the test: binding FACS, HEK Flp-In.

The target in test [4] is T4, huNav157chim14-β1-β2-β3 (human).
T4 construct: Whole entry; HEK Flp-In cells; also called huNav157 chimera 14-beta1-beta2-beta3
Nature of the test: binding FACS, HEK Flp-In.

For test [5], the target named is T5, huNav1.7α + β1-β2-β3 (human, UniProt Q15858 1-1988; A5A6L6 19-218; O60939 30-215; Q2KI11 23-215).
T5 construct: also called huNav1.7-beta1-beta2-beta3; huNav1.7-β1-β2-β3
Nature of the test: FACS, CHO Flp-In, competitor 1 µM IRR00092. (In general: A flow cytometer gives signals particle by particle.)

Test [6] addresses T6, rhNav1.7α + β1-β2-β3 (rhesus monkey).
T6 construct: also called rhNav1.7-beta1-beta2-beta3; rhNav1.7-β1-β2-β3
Nature of the test: FACS, CHO Flp-In, competitor 1 µM IRR00092.

The target of test [7] is T6, rhNav1.7α + β1-β2-β3. Put plainly: FACS, CHO Flp-In, competitor 1 µM F010300703.
Test [8] concerns the target T5, huNav1.7α + β1-β2-β3. Nature of the test: binding FACS, CHO Flp-In, periplasmic extract.
Test [9] has as its target T7, muNav1.7α (murine Nav1.7α) (murine, UniProt Q62205 1-1984).
T7 construct: HEK Jmp-In cells
Put plainly: binding FACS; minus = lower activity than reference.

For test [10], the target named is T8, huNav1.7α (human Nav1.7 alpha subunit, expressed without β subunits) (human, UniProt Q15858 1-1988).
T8 construct: also called HEK293 human Nav1.7α; HEKa Nav1.7α
Nature of the test: binding FACS, HEKa cells.

Test [11] has as its target T9, huNav1.7α + β1 (human Nav1.7α co-expressed with Navβ1) (human, UniProt Q15858 1-1988; Q07699 19-218).
T9 construct: also called HEK293 human Nav1.7α + β1; HEKa/β1 Nav1.7α
Put plainly: binding FACS, HEKa/β1 cells.

Test [12] addresses T10, huNav1.7α + β1-β2-β3 (human Nav1.7α co-expressed with Navβ1, Navβ2 and Navβ3) (human).
T10 construct: also called huNav1.7-beta1-beta2-beta3
Nature of the test: binding FACS, HEK FlpIn cells.

For test [13], the target named is T11, huNav157 chimera 14 + β1-β2-β3 (human).
T11 construct: Chimera of huNav1.7α (extracellular loops and transmembrane helices) and huNav1.5α (intracellular loops); also called Nav157ch14-β1-β2-β3; huNav157 chimera 14-beta1-beta2-beta3
Nature of the test: binding FACS, HEK FlpIn cells.

Test [14] deals with T12, huNav157 chimera 14 (human).
T12 construct: Chimera without β subunits; also called Nav157ch14
Nature of the test: binding FACS, HEK FlpIn cells.

Substitutions are numbered along the chain they refer to. Names and notes keep the numbering of the source.

Experimental findings from patent US20240002497A1 (Merck Sharp & Dohme, published 2024) are described below.

A word on the EC50: it is the midpoint of the concentration-response curve.

B1: F0103478E09 (VHH)
VHH: EVQLVESGGGLVQAGGSLRLSCAASGRAFSTLAMGWFRQAPGKEREFVAAISRNGNNSATGDSLKGRFTISRDSTKSTVFLQMNTLKPEDTAVYYCAAISTPSASHPYVRKESYRYWGQGTLVTVSS
notes: Purified monovalent protein
With B1, the binding result in [1] and in test [2] was “no binding” in each case.

B2: F0103PMP478E09 (bispecific antibody)
chain: EVQLVESGGGLVQPGGSLRLSCAASGSIFNINSMAWYRRAPGKQRELVASSTNGGSTNYADSVKGRFTISRDNAKRVYLQMNSLTPEDTAVYYCRALLQPSIYDISRTYWGQGTLVTVSSGGGGSGGGGSGGGGSGGGGSGGGGSGGGGSGGGGSGGGGSGGGGSGGGGSEVQLVESGGGLVQAGGSLRLSCAASGRAFSTLAMGWFRQAPGKEREFVAAISRNGNNSATGDSLKGRFTISRDSTKSTVFLQMNTLKPEDTAVYYCAAISTPSASHPYVRKESYRYWGQGTQVTVSSAAADYKDHDGDYKDHDIDYKDDDDKGAAHHHHHHKAAGGGGG
notes: Screened as crude periplasmic extract; also called F103275B05(N93R)-50GS-F0103478E09 bivalent ISVD
As for B2, the MFI in test [3] turned out to be 799 MFI; in test [4], 1230 MFI; in test [5] it was 137000 MFI; in test [6] it was 139000 MFI; in test [7], 60600 MFI; in test [8], 82800 MFI.

B3: F010301871 (VHH)
VHH: EVQLVESGGGVVQPGGSLRLSCAATSRAFIRDVFTGWYRRVPGKERELVARIYNGGNTNYADFAKGRFTISRDNAKKMVYLQMNSLRPEDTALYYCLFSGTINTGREYRSGDYWGQGTLVTVSS
notes: also called F0103464B09(L11V, T24A, S68T, T79Y, R81Q, S82aN, N82bS, K83R, G88A, V89L); T24A
With B3, the “EC50 fold change compared to reference” value in test [9] is -2 fold.

B4: F010301872 (VHH)
VHH: B3 VHH with A24T, T25S
notes: also called F0103464B09(L11V, T25S, S68T, T79Y, R81Q, S82aN, N82bS, K83R, G88A, V89L); T25S
Regarding B4, the “EC50 fold change compared to reference” value in test [9] was -2 fold.

B5: F010301873 (VHH)
VHH: B3 VHH with A24T, R40Q
notes: also called F0103464B09(L11V, R39Q, S68T, T79Y, R81Q, S82aN, N82bS, K83R, G88A, V89L); R39Q
B5: the “EC50 fold change compared to reference” value in test [9] was -4 fold.

B6: F010301876 (VHH)
VHH: B3 VHH with A24T, A64V
notes: also called F0103464B09(L11V, A63V, S68T, T79Y, R81Q, S82aN, N82bS, K83R, G88A, V89L); A63V
On to B6, for which the “EC50 fold change compared to reference” value in [9] is -2 fold.

B7: F0103240B04 (VHH)
VHH: EVQLVESGGGLVQAGGSLRLSCAASGGTGRRYAMGWFRQAPGKEREIVAAIRWSAMTYYADDGKGRFTISRDNAKNTVYLQMNSLKPEDTAIYYCAYTWDYFKYDQVRAYRGWGQGTLVTVSS
notes: Purified monovalent protein; also called anti-Navβ2 ISVD F0103240B04
B7: the binding result in test [1] is “no binding”.

B8: F010301850 (VHH)
VHH: EVQLVESGGGVVQPGGSLRLSCAASGRILRIGYMRWYRQAPGKQREFVARITDDSATGYADSVKGRFTISRDNAKNTVYLQMNSLRPEDTALYYCEALVTASVRGGSIHSGTYWGQGTLVTVSS
notes: also called F0103387G05(L11V, A14P, D23A, H37Y, G40A, A41P, D58G, N82bS, N83R, V89L, R105Q)
In test [10], B8 returned a Bmax of 100%. Besides, the EC50 turned out to be 2.8 nM in test [10]; 1.8 nM in test [11]; 1.9 nM in [12]; 3 nM in test [13]; 5.4 nM in test [14].

B9: F0103495F09 (VHH)
VHH: EVQLVESGGGLVQAGSSLSLSCAASGRALSTYAMGWFRQAPGKEREFVARISRSGITTYYTDSVKGRFTISRDRAKDTVYLQMNSLKPEDTAIYLCAADASTNPAGYYLRNRYDYWGQGTLVTVSS
notes: also called F103495F09
Consider B9, for which the binding result in test [2] is on record as “no binding”.

B10: F0103PMP492E09 (bispecific antibody)
chain: EVQLVESGGGLVQPGGSLRLSCAASGSIFNINSMAWYRRAPGKQRELVASSTNGGSTNYADSVKGRFTISRDNAKRVYLQMNSLTPEDTAVYYCRALLQPSIYDISRTYWGQGTLVTVSSGGGGSGGGGSGGGGSGGGGSGGGGSGGGGSGGGGSGGGGSGGGGSGGGGSEVQLVESGGGLVQAGGSLRLSCAASKSILSFAYMRWYRQAPGKQREFVASIAIGGATSYTDSVKGRFTISRDNAKNTVYLQMNSLKPEDTAVYYCSAPAGQYRGQGTLVTVSSAAADYKDHDGDYKDHDIDYKDDDDKGAAHHHHHHKAAGGGGG
notes: crude periplasmic extract; also called F103275B05(N93R)-50GS-F0103492E09 bivalent ISVD
As for B10, the MFI came out at 58400 MFI in [3]; 133000 MFI in [4]; 104000 MFI in [5]; 111000 MFI in test [6]; 25200 MFI in test [7]; 40200 MFI in [8].

B11: F0103500E03 (VHH)
VHH: EVQLVESGGGLVQPGGSLRLSCAASGRTFSRYQMGWFRQAPGKEREFVAYISWSGSTRYVDSVKGRFTISRDNAKNTVYLQMNSLKPEDTAVYHCAAGTAGIISSRPETYDSWGQGTLVTVSS
notes: Purified monovalent protein
For the molecule B11, the binding result in [1] and in test [2] was “no binding” throughout.

B12: F0103505D08 (VHH)
VHH: EVQLVESGGGLVQAGGSLRLSCVTSGRTSDLSTMNWFRQAPGKEREFVARITRRGSTYYAESVKERFIISRDNAKNTVYLQMNSLKPEDTANYYCTAASEMGYHYRGQGTLVTVSS
notes: Purified monovalent protein; also called F0103505D8
For the molecule B12, the binding result in [1] and in test [2] was “no binding” throughout.

B13: F0103492E09 (VHH)
VHH: EVQLVESGGGLVQAGGSLRLSCAASKSILSFAYMRWYRQAPGKQREFVASIAIGGATSYTDSVKGRFTISRDNAKNTVYLQMNSLKPEDTAVYYCSAPAGQYRGQGTLVTVSS
notes: Purified monovalent protein
For B13, the binding result in test [1] and in [2] was “no binding” throughout.
